The experiment concerns the target Gp41-HR1 (HIV-1). Briefly: SPR. (SPR reads the build-up and loss of mass on a sensor chip optically.)

The results in this text go back to PMC2987821.

B1: D5 IgG (antibody, V domains shown)
VH: QVQLVQSGAEVRKPGASVKVSCKASGDTFSSYAISWVRQAPGQGLEWMGGIIPIFGTANYAQAFQGRVTITANESTSTAYMELSSLRSEDTAIYYCARDNPTLLGSDYWGAGTLVTVSS
VL: DIQMTQSPSTLSASIGDRVTITCRASEGIYHWLAWYQQKPGKAPKLLIYKASSLASGAPSRFSGSGSGTDFTLTISSLQPDDFATYYCQQYSNYPLTFGGGTKLEIK
Usually Kd stands for the free concentration of one partner at which half of the binding sites on the other are occupied at equilibrium, for simple one-to-one binding. A lower Kd goes with higher affinity. In general, koff refers to the first-order rate constant of dissociation. The term kon denotes the rate constant with which the complex forms. A high value points to fast association. Consider B1, for which the Kd was 3.1 nM, the dissociation rate constant (koff) came out at 0.00103 s⁻¹ and the association rate constant (kon) is 335000 M⁻¹ s⁻¹.
